According to the DeepSol protein solubility set:

Assay: soluble on expression in E. coli; label from the status in PepcDB or PDB records

Row | Sequence | soluble on expression in E. coli
1 | MGLSHKFQVKQFVEISPYSQSRLRHEQPQTPIHSDITTYHCHRGQFDIVAGGLPCQGTSNAGNRQGLDDPRSALWAEQFRIIESDRPAIALIENPTGLLYRGLEQIICDLDSIGYMGEWNCISAQQVGLPHQRKRIFIIAYSNGLFNQVVPAPWSNQIGNHITQVRLSLETRSYQPGISKVASRIPIGVAKNIPGNYDARRAYGLSCSPRQAAVAWKRIDYLCSLLEHHHHHH | not soluble
2 | MSLEKLLRYLNDNDADKWQKNREKLDDETKAYYAEDLSLMDVLNDLWNGQSEQAATLYFGCYEKAAQNNFPSICEGEKIPLSQIRDKADQSIINLLEASKDKIPFSRALLDSIHATEYPVDSAMLQRLQNIREVALLEGMLKAPTPIIYQTYVKEYPNGKFIAQVNASENVRLYQLVKTAPTPANFKAFFEDPEMQKYYQDRGPRPYLAEVRTLYDDFLFQRIDSLKKEGNATAIRQIIDDYKNTPYLSTGARTHLNDLEYLSEKADFELLKPAIVNSESLGLLQEFLKTHKYKEFRDQAKNLRAPFILQAIVSTPTTVKYYTQGRLIKCCETDSTGNITTSYTYNDKGQLTTTLSVTEKNGQPINEVQTSRLYDPQGHCIFEVKTNPKTKTDFYRRARRIGIDGSIESDSLKYMDGRYTVSSYNKQGLLTETKEYNKNGEMEGYTVNKYDDKGRMTESQHQNMLFVNSPNQILSQKELYEYDKYGYLTRIVYQRIFGNSQKTSGCLTCLYDEYGNRIDGDSYYEYDNTGQWICRTSYDNPQQVERIQYIYKEGHHHHHH | soluble
3 | SDALSWGHGPRLFEVFLEPTCPFSVKAFFKLDDLLAQAGEDNVTVRIRLQSQPWHMFSGVIVRCILAAATLEGGKESAKAVMTAVASHREEFEFEHHAGGPNLDATPNDIIARIERYSGLALAEAFANPELEHAVKWHTKYARQNGIHVSPTFMINGLVQPGMSSGDPVSKWVSDIG | not soluble
4 | MNLSFKIFDISNTQRSKAKKVQGKKYEIFLNENEHSLITPKVSFKEILRYYYLYPKNAIPSFKLPFFKPDLSGFSTPHITWLGHSSLFISFKEYKILIDPIFNTHASPISFINKAFKNAPVYNINDFNEIFAVIITHSHFDHLDAKSVKALKDKAKFFITPLKVGNYLKSYGVSEKKIIELDWWSGIEFGDLKIMATPAQHSSSRGDGKNKTLWASFVMEFLSVDKRVFFSADGGYFTHFKKIGEYFGSFDLACLESGQFNIAWPYSHSFPEQILKEAKDLNAKAVMPIHWGRFLAGTHAWNEVVKFLYENLDLPLITPKMGEAYEVGAKFKQDFWWKEELEHHHHHH | not soluble
5 | MAFLGYGAAAALGGALVYANLPTYLTIGAVAPTFAHLAAAKLVPIRGGPKEKEVVERNEQFTADSLFKKGPIMVMAVRRPGCMLCRREAAELHTLLPLLKEKGIELAAVVHETRGANEFKSWFSGGDVYLDTDRTFYGPNERWLPVWMGFLRFGTYSNVYKAKKAKVEGNMEGEGRLLGGVYLIANNDIVFTHLEKEWGDAADIKEVRAAVEKFSEKSK | not soluble
6 | MSLKYIIGMDVGTTATKGVLYDINGKAVASVSKGYPLIQTKVGQAEEDPKLIFDAVQEIIFDLTQKIDGKIAAISWSSQMHSLIGLGSDDELLTNSITWADNCAKSIVQDAKNRGFAQQIYRKTGMPMHPMAPIYKLLWLKNKKTEVFSQAQKWIGIKEYIIFRLTGKLVTDTTMAAGTGILNLKTLTWDQELLDILKIKKEQLPKIAQPTKVIFPIKTEYVKKLGIDSDTKIILGASDGYLSTIGVNAIDSDHCALNVGTSGAIRTIVDQPKIDPSASYFCYPADKTHYLLGGPVNNGGIVFNWARQTLFDADETPQDFLDVAQTAPAGSRNLIFLPYLGGERAPIWDANARGSFVGLTRMHQKPEMARAVIEGIIFNLYDAASNLIKNTKKPVAINATGGFLKSDFVRQLCANIFNVPIVTMKEQQSGTLAAMFLARQALGLNQDLSEIGQFAQADKVYFPNPKEAATYQKLFPLYCEIRNALAASYGKFSNINEGHHHHHH | soluble
7 | MMKEASEPLASVTSINKQDSKVQDGEIRKEKIGTITPSKQHSSVHFFPKIMDSDSTTLIPLSRSFSQEMPIGFYQITSTQNSSTLSSRGQLASKSTILSCSHKDSSLGKQSTSSMVPRRQPQSSSDVDTYTFGNGEDYFLSLFGESKKLTAHTPQAENVSEHLSVILEEVGQFTSSSLGEIKIAEVNIKGLFVRLVNSSNEKEVEIGNHILQQNVNGHAVSLYQFPDNITLQANSTVTVWAAASEAKPQPPTDFVWEEQSKFRSSPDCTTILCKPNGEAIAWYTPIHWKQAWEKLETDIEFERCSVVVPSMRNHMFGWITASVSSTNEEKEEPIQKTPSQVYPVLYREKEIPPTVLPNKSPWCRNPNTSPHPYSSLIDSHDSDISESSLDTQLKPQPTKPKPDPGTKKKKAKS | soluble
8 | SLPLTMTVLILLLLPTGQAAPKDGVTRPDSEVQHQLLPNPFQPGQEQLGLLQSYLKGLGRTEVQLEHLSREQVLLYLFALHDYDQSGQLDGLELLSMLTAALAPGAANSPTTNPVILIVDKVLETQDLNGDGLMTPAELINFPGVALRHVEPGEPLAPSPQEPQAVGRQSLLAKSPLRQETQEAPGPREEAKGQVEARRESLDPVQEPGGQAEADGDVPGPRGEAEGQAEAKGDAPGPRGEAGGQAEAEGDAPGPRGEAGGQAEARENGEEAKELPGETLESKNTQNDFEVHIVQVENDEI | soluble
9 | MILFGTGGIRGVMRKGEFDEETVKRASLSTALWLKEKGQKSVVIAYDTRKNSKEFAELAGRVFAGEGIEAYVFPEPTPTPVLSFAVRYMKTGGGVVITASHNPPEYNGYKVYTWDGVQAIPEYTNEITEIYKKVDLSHVKEGEIKFVPPEVKESYIKAVLEIVSNLPMKTDLDIAYSPLHGTGANYVPEVLKRLGFKVRLVEEQMKPDPNFSTVPTPNPEEDEALVLLNKKGATLGLATDPDCDRVGVVFKGRRLTGNQVGVLLTDFLLDHVKVENPLVIKTIVTTDMVRPICEEKGAFLEETPTGFKFIGHLIEEHTKKGDRNFVFGFEESCGYLAGNHARDKDGVVGSVLSAVAFSNYDPYEKLEELYQKYGYYMEKLINFKFEDVDRAVEIYRSLKNYDGIIDYSKGYGNVIPNETIAFVFEKSRIFVRPSGTEPKLKVYIHVRGDTREEAEELMKESESKIKEILKL | soluble
10 | GSMIKLFSLKQQKKEEEKGSSKKASAAQLRIQKDINELNLPKTCDISFSDPDDLLNFKLVICPDEGFYKSGKFVFSFKVGQGYPHDPPKVKCETMVYHPNIDLEGNVALNILREDWKPVLTINSIIYGLQYLFLEPNPEDPLNKEAAEVLQNNRRLFEQNVQRSMRGGYIGSTYFERCLK | soluble
11 | MSLGQHFLKDLKVAQDIADTVDTFPELPVLEVGPGMGVLTQFLVKKDRLVKVVEVDYESVAYLREAYPSLEDHIIEDDFLKMNLHRLFDGKPFVLTGNYPYNISSQIFFKMLENKDIIPCCTGMIQKEVAERIAAGPGSKTYGILSVLIQAWYKVEYLFTVSEHVFNPPPKVKSAVIRMTRNDTKELGCDEKLFKQVVKTTFNQRRKTLRNSIKPILGKDCPLTEDALFNKRPEQLSVEEFISLTNQVEEALKTATASEGHHHHHH | soluble
12 | MNHTEIRVVTGPANYFSHAGSLERLTDFFTPEQLSHAVWVYGERAIAAARPYLPEAFERAGAKHLPFTGHCSERHVAQLAHACNDDRQVVIGVGGGALLDTAKALARRLALPFVAIPTIAATCAAWTPLSVWYNDAGQALQFEIFDDANFLVLVEPRIILQAPDDYLLAGIGDTLAKWYEAVVLAPQPETLPLTVRLGINSACAIRDLLLDSSEQALADKQQRRLTQAFCDVVDAIIAGGGMVGGLGERYTRVAAAHAVHNGLTVLPQTEKFLHGTKVAYGILVQSALLGQDDVLAQLITAYRRFHLPARLSELDVDIHNTAEIDRVIAHTLRPVESIHYLPVTLTPDTLRAAFEKVEFFRI | not soluble
13 | MIHVILLAAGYSSRFGSNKLLHIVDGTPMYRHALETAEQFRQRYCCEPVRLIFVTAYDDIGKQLREKDGFCLFGAAKAGNTAGRDLVVMNPNSGLGISHSIALGVKAAGADRFQEDDSLMFMVCDQPWLTPGDLLNLAACFKRSGKSIGCMAYGEQTGNPVLFSAVYREELLGLRGDTGGKAIVRRHPKEVCLCPVSNPRALEDMDELQ | not soluble
14 | MGSDKIHHHHHHMAQPGKILKEQKYDRQLRLWGDHGQEALESAHVCLINATATGTEILKNLVLPGIGSFTIIDGNLVSGEDAGNNFFLQKSSIGKNRAQAAMEFLQELNSDVSGSFVEESPENLLDNDPSFFCRFTIVVATQLLESTLLRLADVLWNSQIPLLICRTYGLVGYMRIIIKEHPVIESHPDNALEDLRLDKPFPELREHLQSYDLDHMEKKDHSHTPWIVIIAKYLAQWYNETNGRIPKSYKEKEDFRDLIRQGILKNENGAPEDEENFEEAIKNVNTALNTTQIPSSIEDIFNDDRCINITKQTPTFWILARALKEFVAKEGQGNLPVRGTIPDMIADSNKYIKLQNVYREKAKKDAAAVGNHVAKLLQSVGQAPESISEKELKLLCSNSAFLRVVRCRSLAEEYGLDTVNKDEIISSMDNPDNEIVLYLMLRAVDRFHKQHGRYPGVSNYQVEEDIGKLKSCLTGFLQEYGLSVMVKDDYVHEFCRYGAAEPHTIAAFLGGAAAQEVIKIITKQFVIFNNTYIYSGMSQTSATFQL | not soluble
15 | MGSDKIHHHHHHMSLKMKLIYVVESSVPYGANKCLIEIIDRLDKDKHEVMVVGADEGALSSWLRERNVSYVSLNHRLSIYPVLNSRKDYLLWLPRLFRRVALNVIAMVKFFKICKRFKPDIVHTNVGPCSLGYFVATYLGIKHVWHVREYQDLDFGMSFFPNRKAFLKRLKRSDAVICITNSIAAHFHLTDNENLAVINDGVISDEKEIDIIQKENYFLFAGRLEAAKGIEEAIESFFEFCETDSSGISFYVAGDGNFNYLKKLKEKVSKSNFSNRVRFLGFRDDIFALMRMAKALVVASRCEGFGLITAEAMYQGTLVIGRDTGGTSEILKDSKGIHYGFLFNSIDELTKLMHEVVDLSPDEYTKMARSAQRRTLDKYTINRNFREISDVYNTLM | not soluble
16 | MENFAEIVGIGPAGVISITGGGGKTSLMFHLARQLAYSGKRVLTTTTTKILAPSVEESRTLLISQDPQVILRHAKAHPGPGVHVSAAAGHIPHTEKLQGFPREAIRTFEDSGEFDWVVVEADGAARKPLKAPAAHEPVIPGNSTIVVALAGLEVLGRPLGEEMVFRSELAGELMQIPQGETITVPALARLLAHPSGGFKGAPPQARRFIFLNKADTPELQEKGGEVALQLKEIAPSVAEAVIVGQLRQEITLHRVYPRGELEHHHHHH | soluble
17 | PGVGDYKGLLKWTSHNQYEKEVKKADEQYGKLYAKFADMPIEKVAKDPQAKQIAQNLFNTYCIQCHGSDAKGSKGFPNLTDSDWLWGGDPDKIHETIEKGRVATMPAWGPALGEEGVKDVAHYVMSLSKPEGQYDEERAARGQALFSGPPANCFTCHGDKGQGIQGLGPNLTDDVWLWGGTQKSIIETITNGRSSQMPAWGHFLDKDKLHIMTAYVWGLSDKDGKAPVKKAEPAPTPAPAAEPAASAPAEAAQAVSEAKPAAAEPKAEEKAAPAAKADGK | not soluble
18 | TDAQKRRRAVGHALAYAGYAEIIPSPFMDPEVFDVWGLAADDERRKTVSVLNPLEAERNVLSTSLLPSMLDAVKRNVARGHNDFSLFGLQQVAFEHGSGVSPMPSVASRPEESVVAELVDSLPNQPLHVATVGTGNIEFEGPWGKGRAYTFADAIESARAVARAAGVTLELANADALPWHPGRCAALLIDGTPVGYAGELHPQILEKAGLPARTCAMELDLSALP | not soluble
